Laboratory results: US20240082434A1

Target: CA1.CD2 PEGylated with P40 (rat)
Test: Western blot; PEGylated (P40) against unmodified CA1.CD2

antibody OX34
decrease of binding against unPEGylated CA1.CD2: 50%
